We go through six molecules from PMC8111768.

Experiment [1] has as its target T1, VIC16 human IgG1 (wild type VIC16-human IgG1 REFORMab) (mouse | human). In words: BLI.
Experiment [2] addresses T1, VIC16 human IgG1 (wild type VIC16-human …). Briefly: SPR. The settings on record: remark: other sources report otherwise.
In experiment [3] the target is VIC16 human IgG1 (wild type VIC16-human IgG1 REFORMab) (mouse | human). Briefly: BLI. This is another data set of the same source. (Biolayer interferometry detects binding as a change in optical thickness at a sensor tip.)
Experiment [4] has as its target VIC16 REFORMab EFTEA (G236A/S267E/H268F/S324T/I332E) (mouse | human). Briefly: SPR. The following applies: remark: other sources report otherwise.
In experiment [5] the target is VIC16 REFORMab KWES (printed K236W/E333S) (mouse | human). In words: SPR. The settings on record: remark: other sources report otherwise.
The target of experiment [6] is VIC16 REFORMab SDIEALGA (G236A/S239D/A330L/I332E) (mouse | human). In words: SPR. The following applies: remark: other sources report otherwise.

The Kd is the concentration at which binding is half-saturated. Low values mean higher affinity, high ones lower affinity.

B1: recombinant murine FcγRIIb, P08101 30-330 (receptor)
chain: THDLPKAVVKLEPPWIQVLKEDTVTLTCEGTHNPGNSSTQWFHNGRSIRSQVQASYTFKATVNDSGEYRCQMEQTRLSDPVDLGVISDWLLLQTPQLVFLEGETITLRCHSWRNKLLNRISFFHNEKSVRYHHYSSNFSIPKANHSHSGDYYCKGSLGRTLHQSKPVTITVQGPKSSRSLP
modifications: not checked
As to B1, the Kd in experiment [1] is 14.9 µM.

B2: recombinant human FcγR2A, P12318 34-317 (receptor)
chain: QAAAPPKAVLKLEPPWINVLQEDSVTLTCQGARSPESDSIQWFHNGNLIPTHTQPSYRFKANNNDSGEYTCQTGQTSLSDPVHLTVLSEWLVLQTPHLEFQEGETIMLRCHSWKDKPLVKVTFFQNGKSQKFSHLDPTFSIPQANHSHSGDYHCTGNIGYTLFSSKPVTITVQVPSMGSSSPMG
modifications: not checked
As for B2, the Kd in experiment [2] is 30 µM.

B3: recombinant murine FcγRIII, P08508 31-261 (receptor)
chain: ALPKAVVKLDPPWIQVLKEDMVTLMCEGTHNPGNSSTQWFHNGRSIRSQVQASYTFKATVNDSGEYRCQMEQTRLSDPVDLGVISDWLLLQTPQRVFLEGETITLRCHSWRNKLLNRISFFHNEKSVRYHHYKSNFSIPKANHSHSGDYYCKGSLGSTQHQSKPVTITVQDPATTSSISLVWYHT
modifications: not checked
On to B3, for which, in experiment [1], the Kd stood at 2.83 µM.

B4: recombinant murine FcγRI (receptor)
chain: EVVNATKAVITLQPPWVSIFQKENVTLWCEGPHLPGDSSTQWFINGTAVQISTPSYSIPEASFQDSGEYRCQIGSSMPSDPVQLQIHNDWLLLQASRRVLTEGEPLALRCHGWKNKLVYNVVFYRNGKSFQFSSDSEVAILKTNLSHSGIYHCSGTGRHRYTSAGVSITVKELFTTPVLRASVSSPFPEGSLVTLNCETNLLLQRPGLQLHFSFYVGSKILEYRNTSSEYHIARAEREDAGFYWCEVATEDSSVLKRSPELELQVLGPQSSAP
B4 gave a Kd in experiment [3] of 0.08 µM.

B5: recombinant murine FcγRIV, A0A0B4J1G0 21-249 (receptor)
chain: GLQKAVVNLDPKWVRVLEEDSVTLRCQGTFSPEDNSIKWFHNESLIPHQDANYVIQSARVKDSGMYRCQTALSTISDPVQLEVHMGWLLLQTTKWLFQEGDPIHLRCHSWQNRPVRKVTYLQNGKGKKYFHENSELLIPKATHNDSGSYFCRGLIGHNNKSSASFRISLGDPGSPSMFPPWHQ
modifications: not checked
Take B5: in experiment [1], the Kd was 0.24 µM.

B6: recombinant human FcγR2B, P31994 43-310 (receptor)
chain: TPAAPPKAVLKLEPQWINVLQEDSVTLTCRGTHSPESDSIQWFHNGNLIPTHTQPSYRFKANNNDSGEYTCQTGQTSLSDPVHLTVLSEWLVLQTPHLEFQEGETIVLRCHSWKDKPLVKVTFFQNGKSKKFSRSDPNFSIPQANHSHSGDYHCTGNIGYTLYSSKPVTITVQAP
modifications: here or on the partner: soluble ectodomain by convention (UniProt topology); tag not stated
In the case of B6, the Kd was determined as 1.2 µM in experiment [4], 224 µM in experiment [5], 21 µM in experiment [6] and 23 µM in experiment [2].
